Publication doi:10.1101/2020.12.19.423584 (bioRxiv, 2020)

Molecular target: purified SARS-CoV-2 N protein produced in pupae (SARS-CoV-2, UniProt P0DTC9 1-419)
Assay: ELISA

B1: Niemann-Pick type C1 (NPC1) receptor, endogenous human (natural protein)
chain: QSCVWYGECGIAYGDKRYNCEYSGPPKPLPKDGYDLVQELCPGFFFGNVSLCCDVRQLQTLKDNLQLPLQFLSRCPSCFYNLLNLFCELTCSPRQSQFLNVTATEDYVDPVTNQTKTNVKELQYYVGQSFANAMYNACRDVEAPSSNDKALGLLCGKDADACNATNWIEYMFNKDNGQAPFTITPVFSDFPVHGMEPMNNATKGCDESVDEVTAPCSCQDCSIVCGPKPQPPPPPAPWTILGLDAMYVIMWITYMAFLLVFFGAFFAVWCYRKRYFVSEYTPIDSNIAFSVNASDKGEASCCDPVSAAFEGCLRRLFTRWGSFCVRNPGCVIFFSLVFITACSSGLVFVRVTTNPVDLWSAPSSQARLEKEYFDQHFGPFFRTEQLIIRAPLTDKHIYQPYPSGADVPFGPPLDIQILHQVLDLQIAIENITASYDNETVTLQDICLAPLSPYNTNCTILSVLNYFQNSHSVLDHKKGDDFFVYADYHTHFLYCVRAPASLNDTSLLHDPCLGTFGGPVFPWLVLGGYDDQNYNNATALVITFPVNNYYNDTEKLQRAQAWEKEFINFVKNYKNPNLTISFTAERSIEDELNRESDSDVFTVVISYAIMFLYISLALGHMKSCRRLLVDSKVSLGIAGILIVLSSVACSLGVFSYIGLPLTLIVIEVIPFLVLAVGVDNIFILVQAYQRDERLQGETLDQQLGRVLGEVAPSMFLSSFSETVAFFLGALSVMPAVHTFSLFAGLAVFIDFLLQITCFVSLLGLDIKRQEKNRLDIFCCVRGAEDGTSVQASESCLFRFFKNSYSPLLLKDWMRPIVIAIFVGVLSFSIAVLNKVDIGLDQSLSMPDDSYMVDYFKSISQYLHAGPPVYFVLEEGHDYTSSKGQNMVCGGMGCNNDSLVQQIFNAAQLDNYTRIGFAPSSWIDDYFDWVKPQSSCCRVDNITDQFCNASVVDPACVRCRPLTPEGKQRPQGGDFMRFLPMFLSDNPNPKCGKGGHAAYSSAVNILLGHGTRVGATYFMTYHTVLQTSADFIDALKKARLIASNVTETMGINGSAYRVFPYSVFYVFYEQYLTIIDDTIFNLGVSLGAIFLVTMVLLGCELWSAVIMCATIAMVLVNMFGVMWLWGISLNAVSLVNLVMSCGISVEFCSHITRAFTVSMKGSRVERAEEALAHMGSSVFSGITLTKFGGIVVLAFAKSQIFQIFYFRMYLAMVLLGATHGLIFLPVLLSYIGPSVNKAKSCATEERYKGTERERLLNF
B1: binds.
